This series can be described thus: label from the status in PepcDB records.
Turning to “MVIYDLHESTYKQEVYCNIPDATSWSFPNGVLIKVVRGCWILYEKPHFRGQKCVLEEGEKVLNRDWILQNRRHPQRNFILGSLKRVLKDCSIPEIELFPQSDPACCPVYIQRAVPNLEELNISKSVSFTVKSGVWLAYPDINFKGQATVLEEDHGLFEISTAEMKSLHPLQMGGLKVEMPMNLKVIIYEKPHFHGQAKEFSEHIDSVPNFLKNNGDFHRIGSIRVIGGVWVAYEKEHFKGQQFLLEEGDFEDSNACGALSSPILSFRYLQANFIESSVTLFESDLESGKFIDITNQEISDLEEIGFGSKTRSIHVKSGVWVAYQQKFFCGEQYILEKGKYKCFFDWGGSNNIIMSIRPIQLEPLGINEPPHLLKAFSKPGFQGECIDFTEETSDLTPLMPCSFKVLRGCWLLYYQEDMFVNHCVLEEGLYADLTSCGCPASKVKSLKPIDYVFEEPSISLFALEHCEGRELHLEEAVNSVLNKDLHFYTQSVWVKSGLWIAYEGSNFLGRQILLRPNEIPNWTAFSRWKTIGSLRPMKQPAVYIRIKNRAQGEYLTVTGSLADTRATSVCISPYSGKHTQIWYYCRGLFKSKASDTCLDVIGGRDTPGAKVALWTEHGQFRQKWRLNKNGTISSYLSDQLVLDVKGGNYCDKTHVIVNQPLEGEETQKWDIEIL”, the protein production entry is recorded as “failed”. In the case of “MDLSTAFPTLVTDLPAAFSMSVVGGVGLAMIVLDAFRNDHPAIPWLGVAALGVSAVWEITHLGAPPSTVFFETLRTGGFVAFINLIILLTGLATILLSVPYLNQLRYDYGEVYALIMFCTVGMIMLGSANNMVSIFLGLETMSVCLYVLTGFIREDEGAVESALKYFLLGAFSTGFFLYGIALMYGATGTMALPAMAAAELGTLSTRLLFWGGFALFLVGFFFKVSAAPFHMWTPDVYQGAPTPLTGYMSTATKAAAFAALILVLVHAVPGGEWQLSVAAVAVLTMVIGNVMALAQTNVKRLLAYSSIAHAGYLLVGLSAGTSAGYAGALFYLLVYAVMNIGAFGVMSMLEWDGKEGREQTLSSLAGIANDRPVLGSTMGVFMLSLIGFPPLGGFIGKYLVFAPAVDAGLTWLVVIGVLMSALSAYYYLRVVYVFWMQSADEVAATDPVRAAAFPRATVAATGTLVVCAVALVVLGVFFGGVLETTLGFFETTAMATAP”, the protein production entry is recorded as “failed”. As to “MHGTNPVPKLPKKIPMQADPNAAPPALDDETLAFAARLFQYARMGHAEELAELFGQGLPANLRNDKGDSLLMLAAYNGQAATARVILEAGGDPELANDRGQTPLAGAAFKGDADIVRLLLEHGAQVDGAGDGTRTALMVAAMFDRTEIVDLLLAQGADPSRRDASGMSAADMARQMGAQNTPAQLERAQGDRAG”, the protein production result is given as “failed”. Under “MKDLIIVGAGGFGREVAWLVEDINNNNREWNLLGFIDENEQNHGNELNGYKVLGGFDYLNNKKNIYYVCAIGNAKVRKEIVEKKCSKYNIKPANLIHPSVIMSKKYNKMGEGCIICASNIITVNVTLGDHIIVNLDCTIGHDVVINDYVTIYPSVNVSGNCNIGECVELGTGTQVIQGNNIGDRTIVGAGSVVIRNIEGDKVAVGVPTKVIK” stands “failed”; under “MMKNFVCTTCGVQYAASVEEPVSCHICDEERQYVNPKGQSWTTLENLQTDDTYKNEIIKEENGLYSITTKPGFAIGQTAFVVKTESYRLLWDCITYLDETTITKIKELGGLDAIALSHPHYYSTQVEWAETFDVPIYIHEDDKEWVMRPSSRIIYWSGESLQLADGITVHRLGGHFSGGSVLHWEEGNDGKGILLTGDIIQVVADERWVSFMYSYPNLIPLPARKVEEMVNRVKPLQFNRLYNAFHRVVKENANEAVERSAERYIKAIEGKLFHT”, “failed”; under “MEILHFSPSSSISTIIHRPRRKIMALRDSIKTQMNLITTESVSSFRFCPCGRRHFIGAAMTSMPFLPISPSHASTSTEDLKRLRPPKPDWYEEFFAWSMNSEVESYEKEVSDYKMKLFDNLVGKAEKVLEIGIGTGPNFKYYTDIPNVSVIGIDPNAKMESYARKSATEAGLKPEEFTFVHALGESIPLEDASVDAVVGTLVLCSVTDVTQTLKEIKRILRPGGIYIFIEHVAAEDGTFLRLVQTVLDPLQQVVADGCHLTRHTGESILEARFNGGADVKKTSLSRLAYISSHVYGVAYN”, “failed”. In the case of “MEIKRILVSRTDKIGDLVLSIPSFFMLKKMYPNAELVVIVRKYNVDIVKNLPYIDRIVIIDEYSKAELLEKIAYFKADVFIALYNDSYIASLARASKAKIKIGPISKLSSFFTYNKGVLQKRSLSLKNEGQYNLDLVTKLDRKRFAILEHHHHHH”, the protein production result is “failed”.

For “MVDFKVVLSDPKTGLSYKIDAAGAAAGALLGKKIGTEVDGAPFGMSGYKITITGGSDKTGTPARPDLPGNGRRGLLISDGFGFNATHNGERRRKSQRGNEIAADFVQVNAKITVYGEKPVTEIFAAAAE”, the protein production entry was “failed”. In the case of “MTKSVDTLLIPGPIILSGAVQKALDVPSLGHTSPEFVSIFQRVLKNTRAVFKSAAASKSQPFVLAGSGTLGWDIFASNFILSKAPNKNVLVVSTGTFSDRFADCLRSYGAQVDVVRPLKIGESVPLELITEKLSQNSYGAVTVTHVDTSTAVLSDLKAISQAIKQTSPETFFVVDAVCSIGCEEFEFDEWGVDFALTASQKAIGAPAGLSISLCSSRFMDYALNDSKNGHVHGYFSSLRRWTPIMENYEAGKGAYFATPPVQLINSLDVALKEILEEGLHKRWDLHREMSDWFKDSLVNGLQLTSVSRYPSNMSAHGLTAVYVADPPDVIAFLKSHGVVIAGGIHKDIGPKYIRIGHMGVTACNKNLPYMKNCFDLIKLALQRKK”, the protein production result is recorded as “not failed”.

On to “VYGSEVESKIIEFTIVGADEIIAEKLGISVGDFVYKIIRLRIIHSIPTIMEHTWMPIAVIPGVEASVLEESIYSYIQNKLGLKVGTSVVRVKGIRPDDKEKQFMNLTNQDFLMRVEQVAYLTDGRTFEYSYADHLPETFEFETVITAKSYKEA”, for which the protein production entry was “not failed”. As to “MTISADPDRDWKNRISAQALRQIQELDLALDPNSFELWYTFFSGRHKALTEAVNALLAATGRPSAGDISGLYEQFLYPTKAVTRIHAIGALVHSQSNALIDVIEEASDATHGYETRLSSAAPRLALGRMEDGLQTIVDELLTWTMDIQTANAVLVDRLRSAADQVRKLQDQLDQVRLESMTDPLTEVGNRKYFENQLSLHVASDDSGPLALLIVDLDNFKQFNDRHGHVVGDDVLRLAASTIKHNCRRDDVVCRYGGDEFAIILPRTPLREALLLGEAIRAAIAARELHRRSTHESLGRLLISIGAAEFRPGETADDFVERADHWMYAAKQARRDRTRPGPDAAARDPGERRPDILWHETYACGEPTIDAQHRELFDLANVILGPEIEMLEPARLSELVELLLTRVAEHFQYEQAVLEASGYDECGLHRMEHDHLLIRARQVSEAVVSGHQSLGELRAFLVNSVILGHMLKDDRRFFPLFDRQASSATQSGAAPVHRERRRLSL”, the protein production result is recorded as “failed”. For “MIGQTDQNIVITYSANIQQVKILYVDEKGSEVSSMLLKGNTDQTVNVSYSVPDHWIAISGQDSPLQYTFKAKDNKNIVIRIGHKLEDQENDIHKIIRNVNIVNPDGSVAKVSQTAIFTRVHQRDEVTGEEVYGNWDKISQDFNAIDIPKIFGYTATSSVGKMTVTPDSQSENITITYTADIQNNKIVIIDDESHGSQINTVGFTGKTGKSIAWQVTIPENYDLAAGGKISGNYTFNAVNQIPIEVHVRHKHVQDDESKSVTRTIVTNLPGLDKSEIVQTVTFSRIIDKDLVDGN”, the protein production result is on record as “failed”. “FLILLRKTLEQLQEKDTGNIFSEPVPLSEVPDYLDHIKKPMDFFTMKQNLEAYRYLNFDDFEEDFNLIVSNCLKYNAKDTIFYRAAVRLREQGGAVLRQARRQAEKMG”: the protein production entry is recorded as “not failed”. For “MAQRVQLTATVSENQLGQRLDQALAEMFPDYSRSRIKEWILDQRVLVNGKVCDKPKEKVLGGEQVAINAEIEEEARFEPQDIPLDIVYEDEDIIIINKPRDLVVHPGAGNPDGTVLNALLHYYPPIADVPRAGIVHRLDKDTTGLMVVAKTVPAQTRLVESLQRREITREYEAVAIGHMTAGGTVDEPISRHPTKRTHMAVHPMGKPAVTHYRIMEHFRVHTRLRLRLETGRTHQIRVHMAHITHPLVGDPVYGGRPRPPKGASEAFISTLRKFDRQALHATMLRLYHPISGIEMEWHAPIPQDMVELIEVMRADFEEHKDEVDWL”, the protein production result is given as “not failed”. Take “IHYAGKILQERLVNPPSLMELAREIGINDHKLKVGFRQVFKTTVFGYLHDQRIERSRQLLESGEMTVTGAASAVGFANRGHFAAAFRRKFGINPSLYARQRKL”: the protein production result was “failed”.

For the origin of these results see a protein production outcome set (Wang et al. 2014).
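Note: failed if final PepcDB status was selected cloned or expressed and not failed if soluble or beyond.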
